Test results taken from patent US20120167239A1.

Target: GAL4:CfEcR-DEF (yeast; Choristoneura fumiferana)
Assay: cell-based or functional assay

## VP16:LmUSP-EF
  maximum fold induction of luciferase reporter (two-hybrid switch, stable CHO clone 1A2, non-steroidal ligand): 162 fold
  maximum fold induction of luciferase reporter (two-hybrid switch, stable CHO clone 1A2, steroid PonA): 42 fold
